Reference: patent publication US20230312754A1 (published 2023)

Legend:
[1] = biological target: T1, biotinylated human CD40-mouse Fc (Ancell #504-030) (human, UniProt P25942 21-193, biotinylated); assay: Octet (BLI), bsAb in solution, captured CD40mFc-biotin, 1:1 fit
T1 construct: Bought protein; also called biotinylated hCD40-muIg; CD40mFc-biotin; not shown: mouse Fc (muIg) part
Procedure: Kinetic measurements were performed in the Octet RED96 platform using several different setups. […] Monomeric human CD40-His-Avi tag (Acro Biosystems #CD0-H5228), monomeric Human CEACAM5-His (R&D Systems #4128-CM-050) or monomeric Cynomolgus CEACAM5-His (Sino Biological #90891-C08H) were ½ serially diluted in 1× kinetic buffer (Sartorius) starting at 500 nM or 100 nM. Bispecific antibodies were 2 serially diluted starting at 50 nM, 25 nM or 10 nM or 1/1.5 serially diluted starting at 15 nM or 5 nM. Binding kinetics was studied in 1× kinetic buffer where association was allowed for 100 sec, 300 sec or 600 sec followed by dissociation for 100 sec, 300 sec or 3600 sec. Sensor tips were regenerated with 10 mM Glycine pH 1.7. Data generated were referenced by subtracting blank or parallel buffer blank, the baseline was aligned to the y-axis, inter-step correction by alignment against dissociation was performed and the data was smoothed by Savitzky-Golay filter in the data analysis software (v9.0.0.14). The processed data was fitted using a 1:1 Langmuir binding model with R² or X² as a measurement of fitting accuracy.
TABLE 12 Summary of kinetic profiles measured in Octet. Bispecific antibodies in solution (25-0.8 nM, 10-2 or 5-0.7 nM.) interacting with captured CD40mFc-biotin. Association was measured for 300 sec or 600 sec and dissociation was measured for 300 sec or 3600 sec

[2] = biological target: T2, human CEACAM5 (R&D Systems #4128-CM-050) (human, UniProt P06731 35-685); assay: dual target ELISA: coated hCEACAM-5, detection with biotinylated hCD40-muIg
T2 construct: Bought protein; also called hCEACAM-5; Human CEACAM5-His
T2 sequence (looked up): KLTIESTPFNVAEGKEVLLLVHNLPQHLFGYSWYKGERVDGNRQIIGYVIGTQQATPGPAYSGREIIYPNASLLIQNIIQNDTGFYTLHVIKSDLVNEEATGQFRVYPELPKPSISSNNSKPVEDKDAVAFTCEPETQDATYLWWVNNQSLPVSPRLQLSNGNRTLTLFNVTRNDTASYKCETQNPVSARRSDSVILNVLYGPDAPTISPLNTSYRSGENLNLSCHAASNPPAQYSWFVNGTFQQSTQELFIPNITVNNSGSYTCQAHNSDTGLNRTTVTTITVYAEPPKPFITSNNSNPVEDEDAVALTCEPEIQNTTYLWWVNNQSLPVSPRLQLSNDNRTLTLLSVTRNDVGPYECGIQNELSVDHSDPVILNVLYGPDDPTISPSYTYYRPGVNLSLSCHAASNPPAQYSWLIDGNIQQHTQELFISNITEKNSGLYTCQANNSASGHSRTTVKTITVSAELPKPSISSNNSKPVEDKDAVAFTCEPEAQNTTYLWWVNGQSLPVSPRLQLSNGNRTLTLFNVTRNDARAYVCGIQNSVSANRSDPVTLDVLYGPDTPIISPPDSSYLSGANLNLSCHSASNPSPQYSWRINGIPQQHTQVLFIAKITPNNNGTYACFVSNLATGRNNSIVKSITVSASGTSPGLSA
Procedure: 96-well plates were coated with 0.5 μg/mL antigen, hCEACAM-1 (2244-CM-050, R&D Systems), hCEACAM-5 (4128-CM-050, R&D Systems), hCEACAM-6 (3934-CM-050, R&D Systems) or CEACAM-8 (9639-CM-050, R&D Systems) in PBS over night at 4° C. After washing in PBS/0.05% Tween 20 (PBST), the plates were blocked with PBST, 2% BSA for at least 30 minutes at room temperature before a second round of washing. RUBY bsAbs, diluted in PBST, 0.5% BSA, were then added and allowed to bind for at least 1 hour at room temperature. […] Finally, a final round of washing was performed and bound complexes detected using SuperSignal Pico Luminescent as substrate and luminescence signals were measured using Fluostar Optima.

T1 sequence (P25942 21-193 limits assumed): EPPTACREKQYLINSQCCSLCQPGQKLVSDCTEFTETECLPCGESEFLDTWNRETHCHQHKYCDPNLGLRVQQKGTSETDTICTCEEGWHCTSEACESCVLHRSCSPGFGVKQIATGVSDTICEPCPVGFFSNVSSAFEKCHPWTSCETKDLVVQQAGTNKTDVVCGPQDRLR

B1: AC_05293 (bispecific antibody, V domains shown)
VH 1: EVQLLESGGGLVQPGGSLRLSCAASGFTFSSYAMSWVRQAPGKGLEWVSGIGSYGGGTYYADSVKGRFTISRDNSKNTLYLQMNSLRAEDTAVYYCARYVNFGMDYWGQGTLVTVSS
VL 1: DIQMTQSPSSLSASVGDRVTITCRASQSISSYLNWYQQKPGKAPKLLIYAASSLQSGVPSRFSGSGSGTDFTLTISSLQPEDFATYYCQQYGRNPPTFGQGTKLEIK
VL 2: ELVMTQSPSSLTVTAGEKVTMSCKSSQSLLNSGNQKNYLTWYQQKPGQPPKLLIYWASTRESGVPDRFTGSGSGTDFTLTISSVQAEDLAVYYCQNDYSYPLTFGAGTKLEIK
VH 2: EVQLLEQSGAELVRPGTSVKISCKASGYAFTNYWLGWVKQRPGHGLEWIGDIFPGSGNIHYNEKFKGKATLTADKSSSTAYMQLSSLTFEDSAVYFCARLRNWDEPMDYWGQGTTVTVSS
Kd [1]: 76 nM | koff [1]: 0.00062 s⁻¹ | kon [1]: 8300 M⁻¹ s⁻¹

B2: AC_05300 (bispecific antibody, V domains shown)
VH 1: EVQLLEQSGAELVRPGTSVKISCKASGYAFTNYWLGWVKQRPGHGLEWIGDIFPGSGNIHYNEKFKGKATLTADKSSSTAYMQLSSLTFEDSAVYFCARLRNWDEPMDYWGQGTTVTVSS
VL 1: ELVMTQSPSSLTVTAGEKVTMSCKSSQSLLNSGNQKNYLTWYQQKPGQPPKLLIYWASTRESGVPDRFTGSGSGTDFTLTISSVQAEDLAVYYCQNDYSYPLTFGAGTKLEIK
VL 2: DIQMTQSPSSLSASVGDRVTITCRASQSISSYLNWYQQKPGKAPKLLIYAASSLQSGVPSRFSGSGSGTDFTLTISSLQPEDFATYYCQQYGRNPPTFGQGTKLEIK
VH 2: EVQLLESGGGLVQPGGSLRLSCAASGFTFSSYAMSWVRQAPGKGLEWVSGIGSYGGGTYYADSVKGRFTISRDNSKNTLYLQMNSLRAEDTAVYYCARYVNFGMDYWGQGTLVTVSS
Kd [1]: 8.5 nM | koff [1]: 0.0046 s⁻¹ | kon [1]: 540000 M⁻¹ s⁻¹

B3: Multi40 (bispecific antibody)
heavy 1: not shown
light: DIQMTQSPSSLSASVGDRVTITCRASQSISSYLNWYQEKPGKAPKLLIYAASSLQSGVPSRFSGSGSGTDFTLTISSLQPEDFATYYCQQSSHGPLLTFGQGTKLEIKRTVAAPSVFIFPPSDEQLKSGTASVVCYLNNFYPREAKVQWKVDNALQSGNSQESVTEQDSKDSTYSLWSTLTLSKADYEKHKVYACEVTHQGLSSPVTKSFNRGEC
heavy 2: EVQLLESGGGLVQPGGSLRLSCAASGFTFSTYGMHWVREAPGKGLEWLSYISGGSSYIFYADSVKGRFTISRDNSKNTLYLQMNSLRAEDTAVYYCARILRGGSGMDLWGQGTLVTVSSASTKGPSVFPLAPSSKSTSGGTAALGCLVKDYFPEPVTVSWNSGALTSGVHTFPAVLQSSGLYSLTSVVEVPSSSLGTQTYICNVNHKPSNTKVDKKVEPKSC
notes: CEACAM5xCD40, Optimized RUBY format; copies: 2 + 2 + 2
binding result [2]: binds
